Experimental data published in patent US20150080554A1.

Columns and labels:
[1] = target: polyclonal human IgG (Gammanorm, Octapharma) (human); experiment: gradient elution pH 6 to pH 3, 0.1 M citrate, from ligand-coupled agarose column
[2] = target: polyclonal human IgG (Gammanorm, Octapharma) (human); experiment: breakthrough on ligand-coupled agarose column; 1 mg/ml IgG in 20 mM PBS + 0.15 M NaCl pH 7.4; residence time 6 min; ligand density 6.7 mg/ml
[3] = target: polyclonal human IgG (Gammanorm, Octapharma) (human); experiment: breakthrough on ligand-coupled agarose column; 1 mg/ml IgG in 20 mM PBS + 0.15 M NaCl pH 7.4; residence time 2.4 min; ligand density 6.7 mg/ml
[4] = target: mAb (Table 2, column 'pH mAb'); experiment: gradient elution pH 6 to pH 3, 0.1 M citrate, from ligand-coupled agarose column; about 10 mg cell culture supernatant loaded
[5] = target: polyclonal human IgG (Gammanorm, Octapharma) (human); experiment: breakthrough on ligand-coupled agarose column; 1 mg/ml IgG in 20 mM PBS + 0.15 M NaCl pH 7.4; residence time 6 min; ligand density 6.9 mg/ml
[6] = target: polyclonal human IgG (Gammanorm, Octapharma) (human); experiment: breakthrough on ligand-coupled agarose column; 1 mg/ml IgG in 20 mM PBS + 0.15 M NaCl pH 7.4; residence time 2.4 min; ligand density 6.9 mg/ml
[7] = target: polyclonal human IgG (Gammanorm, Octapharma) (human); experiment: breakthrough on ligand-coupled agarose column; 1 mg/ml IgG in 20 mM PBS + 0.15 M NaCl pH 7.4; residence time 6 min; ligand density 5.3 mg/ml
[8] = target: polyclonal human IgG (Gammanorm, Octapharma) (human); experiment: breakthrough on ligand-coupled agarose column; 1 mg/ml IgG in 20 mM PBS + 0.15 M NaCl pH 7.4; residence time 2.4 min; ligand density 5.3 mg/ml

Substance | elution pH at peak apex, pH hIgG (first peak) [1] [pH] | elution pH at peak apex, pH hIgG (second peak) [1] [pH] | Qb10% (dynamic binding capacity at 10% breakthrough) [2] [mg/ml resin] | Qb80% (dynamic binding capacity at 80% breakthrough) [2] [mg/ml resin] | Qb10% (dynamic binding capacity at 10% breakthrough) [3] [mg/ml resin] | Qb80% (dynamic binding capacity at 80% breakthrough) [3] [mg/ml resin] | elution pH at peak apex, pH mAb [4] [pH] | Qb10% (dynamic binding capacity at 10% breakthrough) [5] [mg/ml resin] | Qb80% (dynamic binding capacity at 80% breakthrough) [5] [mg/ml resin] | Qb10% (dynamic binding capacity at 10% breakthrough) [6] [mg/ml resin] | Qb80% (dynamic binding capacity at 80% breakthrough) [6] [mg/ml resin] | Qb10% (dynamic binding capacity at 10% breakthrough) [7] [mg/ml resin] | Qb80% (dynamic binding capacity at 80% breakthrough) [7] [mg/ml resin] | Qb10% (dynamic binding capacity at 10% breakthrough) [8] [mg/ml resin] | Qb80% (dynamic binding capacity at 80% breakthrough) [8] [mg/ml resin]
Comparative prototype Z(H18S)4 (designed binder) | 5.1 | 4.61 | 55 | 67.5 | 37 | 62.2 |  |  |  |  |  |  |  |  | 
Mutant Z(H18S,N28A)4 (designed binder) | 5.68 | 5.15 |  |  |  |  | 5.05 | 45.9 | 59.1 | 35.2 | 56 |  |  |  | 
Mutant Z(H18S,P57I)4 (designed binder) | 5.44 | 4.91 |  |  |  |  | 4.71 |  |  |  |  | 47 | 58 | 35.6 | 56
